Legend:
c-Src = test: phosphorylation enrichment, bacterial display (enrichment ratio); higher = better substrate or ligand; peptides without Tyr show the background
AncSZ = test: as above
Hck = Hck (UniProt P08631); test: as above
Jak2 = Jak2 (UniProt O60674); test: as above
FGFR3 = FGFR3 (UniProt P22607); test: as above
Fer (mouse) = test: as above
FGFR1 = FGFR1 (UniProt P11362); test: as above
MERTK = MERTK (UniProt Q12866); test: as above
EPHB1 = EPHB1 (UniProt P54762); test: as above
EPHB2 = EPHB2 (UniProt P29323); test: as above
Fyn = Fyn (UniProt P06241); test: as above
Chain of Fyn (P06241 whole entry, looked up): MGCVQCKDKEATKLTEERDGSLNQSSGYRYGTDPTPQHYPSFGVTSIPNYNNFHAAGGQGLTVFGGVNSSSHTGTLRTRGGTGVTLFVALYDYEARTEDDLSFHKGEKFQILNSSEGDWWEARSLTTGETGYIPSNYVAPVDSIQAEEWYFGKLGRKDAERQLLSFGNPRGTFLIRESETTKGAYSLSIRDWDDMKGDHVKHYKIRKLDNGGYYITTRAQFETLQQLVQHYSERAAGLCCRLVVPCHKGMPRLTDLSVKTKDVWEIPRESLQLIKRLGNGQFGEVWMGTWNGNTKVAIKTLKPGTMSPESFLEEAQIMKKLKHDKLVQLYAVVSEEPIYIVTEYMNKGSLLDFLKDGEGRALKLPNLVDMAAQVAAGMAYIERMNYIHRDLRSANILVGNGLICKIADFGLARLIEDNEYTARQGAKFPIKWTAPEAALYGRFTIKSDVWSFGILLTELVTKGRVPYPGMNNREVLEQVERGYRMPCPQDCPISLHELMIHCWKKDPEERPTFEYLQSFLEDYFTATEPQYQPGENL

c-Abl (mouse) = test: as above
Fes = Fes (UniProt P07332); test: as above
Chain of Fes (P07332 whole entry, looked up): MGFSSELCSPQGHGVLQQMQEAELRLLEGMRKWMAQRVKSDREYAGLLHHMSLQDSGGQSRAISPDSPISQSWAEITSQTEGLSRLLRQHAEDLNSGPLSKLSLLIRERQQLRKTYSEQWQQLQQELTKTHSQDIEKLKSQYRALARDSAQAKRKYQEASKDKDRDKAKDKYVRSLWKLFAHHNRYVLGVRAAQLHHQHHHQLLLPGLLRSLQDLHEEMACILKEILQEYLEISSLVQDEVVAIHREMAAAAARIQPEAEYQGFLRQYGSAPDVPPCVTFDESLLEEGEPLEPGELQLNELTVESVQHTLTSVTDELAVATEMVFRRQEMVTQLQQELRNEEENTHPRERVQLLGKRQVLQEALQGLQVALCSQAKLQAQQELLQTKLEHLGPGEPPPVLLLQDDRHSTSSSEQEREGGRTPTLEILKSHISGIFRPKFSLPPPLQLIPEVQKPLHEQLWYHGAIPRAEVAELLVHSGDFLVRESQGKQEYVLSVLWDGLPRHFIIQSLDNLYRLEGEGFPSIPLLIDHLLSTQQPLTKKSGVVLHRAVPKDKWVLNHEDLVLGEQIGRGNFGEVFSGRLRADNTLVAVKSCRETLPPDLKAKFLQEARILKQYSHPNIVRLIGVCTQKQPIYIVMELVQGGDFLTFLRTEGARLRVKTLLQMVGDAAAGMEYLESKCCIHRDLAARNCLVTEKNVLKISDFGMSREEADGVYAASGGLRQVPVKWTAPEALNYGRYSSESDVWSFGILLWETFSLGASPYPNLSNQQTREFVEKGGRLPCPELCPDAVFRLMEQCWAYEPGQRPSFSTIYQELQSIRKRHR

c-Src SH2 = test: SH2 binding enrichment of the phosphorylated peptide, bacterial display (enrichment ratio); higher = better substrate or ligand; peptides without Tyr show the background
Grb2 SH2 = Grb2 SH2 (UniProt P62993); test: as above
Chain of Grb2 SH2 (P62993 whole entry, looked up): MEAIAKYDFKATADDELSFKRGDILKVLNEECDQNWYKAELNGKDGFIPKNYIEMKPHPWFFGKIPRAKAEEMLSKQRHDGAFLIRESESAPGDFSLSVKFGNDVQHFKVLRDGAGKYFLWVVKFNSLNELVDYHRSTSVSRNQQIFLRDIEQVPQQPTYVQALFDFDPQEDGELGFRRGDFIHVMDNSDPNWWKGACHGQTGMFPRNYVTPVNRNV

SHP2-C SH2 = test: as above
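Throughout, for SH2 binding enrichment of the phosphorylated peptide, bacterial display: peptide library displayed on the E. coli surface as eCPX fusions, selected cells deep-sequenced, score is each peptide's frequency after selection divided by its frequency in the input.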
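Throughout, for phosphorylation enrichment, bacterial display: 11-residue human phosphosite peptides and single-mutation variants displayed on the E. coli surface, counted by deep sequencing, each peptide's frequency after selection divided by its frequency in the unselected input library; frequency after pTyr selection over input frequency; kinase dosed for 20-30% of maximal phosphorylation in three min.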

Chain of MERTK (Q12866 whole entry, looked up): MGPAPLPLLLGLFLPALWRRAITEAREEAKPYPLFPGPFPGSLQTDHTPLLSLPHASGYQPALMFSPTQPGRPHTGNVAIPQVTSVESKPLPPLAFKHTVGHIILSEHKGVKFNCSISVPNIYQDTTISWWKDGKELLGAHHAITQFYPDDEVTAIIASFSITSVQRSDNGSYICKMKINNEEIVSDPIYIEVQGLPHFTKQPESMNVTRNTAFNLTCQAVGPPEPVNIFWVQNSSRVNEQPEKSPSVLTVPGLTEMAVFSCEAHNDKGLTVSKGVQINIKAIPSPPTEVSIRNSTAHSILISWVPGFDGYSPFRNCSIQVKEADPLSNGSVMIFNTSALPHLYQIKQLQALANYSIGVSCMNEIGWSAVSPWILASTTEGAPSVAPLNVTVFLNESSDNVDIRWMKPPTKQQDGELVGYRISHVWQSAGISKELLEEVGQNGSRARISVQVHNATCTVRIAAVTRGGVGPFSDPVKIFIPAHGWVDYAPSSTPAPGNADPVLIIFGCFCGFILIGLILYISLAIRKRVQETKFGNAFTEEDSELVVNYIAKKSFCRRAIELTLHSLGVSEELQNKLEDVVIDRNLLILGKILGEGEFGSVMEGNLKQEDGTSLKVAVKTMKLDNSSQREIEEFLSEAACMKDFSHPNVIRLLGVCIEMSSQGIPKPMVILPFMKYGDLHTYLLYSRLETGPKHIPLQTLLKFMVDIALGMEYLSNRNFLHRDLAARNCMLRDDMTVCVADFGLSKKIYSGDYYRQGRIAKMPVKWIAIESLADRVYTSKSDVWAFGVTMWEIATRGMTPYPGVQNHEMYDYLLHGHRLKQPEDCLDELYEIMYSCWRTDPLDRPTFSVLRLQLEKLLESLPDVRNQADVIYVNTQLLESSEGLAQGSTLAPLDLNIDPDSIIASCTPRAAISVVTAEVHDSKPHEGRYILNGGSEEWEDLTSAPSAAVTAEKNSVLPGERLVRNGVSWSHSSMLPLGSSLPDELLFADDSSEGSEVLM
Chain of Jak2 (O60674 whole entry, looked up): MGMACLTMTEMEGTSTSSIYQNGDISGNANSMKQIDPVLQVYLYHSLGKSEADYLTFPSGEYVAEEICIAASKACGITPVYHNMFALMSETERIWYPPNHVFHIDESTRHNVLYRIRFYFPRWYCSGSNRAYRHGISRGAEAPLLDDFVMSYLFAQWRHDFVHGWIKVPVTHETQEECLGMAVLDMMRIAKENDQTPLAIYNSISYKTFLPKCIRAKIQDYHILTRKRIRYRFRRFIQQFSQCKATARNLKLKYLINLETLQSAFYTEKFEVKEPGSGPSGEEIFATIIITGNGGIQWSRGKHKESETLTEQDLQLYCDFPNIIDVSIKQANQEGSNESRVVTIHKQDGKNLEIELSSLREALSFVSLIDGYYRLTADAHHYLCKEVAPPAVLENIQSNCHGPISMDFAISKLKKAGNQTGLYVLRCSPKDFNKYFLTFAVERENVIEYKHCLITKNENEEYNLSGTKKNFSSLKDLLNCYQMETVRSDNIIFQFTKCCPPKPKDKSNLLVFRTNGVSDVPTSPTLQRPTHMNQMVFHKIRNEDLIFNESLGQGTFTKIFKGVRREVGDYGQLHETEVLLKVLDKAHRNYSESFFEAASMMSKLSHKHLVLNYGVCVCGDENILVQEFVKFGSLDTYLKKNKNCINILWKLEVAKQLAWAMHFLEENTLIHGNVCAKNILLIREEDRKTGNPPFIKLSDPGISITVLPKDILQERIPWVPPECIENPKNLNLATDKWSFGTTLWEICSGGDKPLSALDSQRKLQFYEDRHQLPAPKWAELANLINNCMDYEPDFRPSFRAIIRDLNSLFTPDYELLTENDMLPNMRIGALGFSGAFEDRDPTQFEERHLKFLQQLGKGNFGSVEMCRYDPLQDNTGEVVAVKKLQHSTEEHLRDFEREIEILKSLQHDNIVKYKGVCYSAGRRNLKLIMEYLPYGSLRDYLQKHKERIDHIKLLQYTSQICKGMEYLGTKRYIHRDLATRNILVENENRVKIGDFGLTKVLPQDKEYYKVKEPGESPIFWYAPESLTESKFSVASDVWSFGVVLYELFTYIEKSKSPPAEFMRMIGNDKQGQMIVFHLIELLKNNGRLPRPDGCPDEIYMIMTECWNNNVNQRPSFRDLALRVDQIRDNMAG
Chain of FGFR1 (P11362 whole entry, looked up): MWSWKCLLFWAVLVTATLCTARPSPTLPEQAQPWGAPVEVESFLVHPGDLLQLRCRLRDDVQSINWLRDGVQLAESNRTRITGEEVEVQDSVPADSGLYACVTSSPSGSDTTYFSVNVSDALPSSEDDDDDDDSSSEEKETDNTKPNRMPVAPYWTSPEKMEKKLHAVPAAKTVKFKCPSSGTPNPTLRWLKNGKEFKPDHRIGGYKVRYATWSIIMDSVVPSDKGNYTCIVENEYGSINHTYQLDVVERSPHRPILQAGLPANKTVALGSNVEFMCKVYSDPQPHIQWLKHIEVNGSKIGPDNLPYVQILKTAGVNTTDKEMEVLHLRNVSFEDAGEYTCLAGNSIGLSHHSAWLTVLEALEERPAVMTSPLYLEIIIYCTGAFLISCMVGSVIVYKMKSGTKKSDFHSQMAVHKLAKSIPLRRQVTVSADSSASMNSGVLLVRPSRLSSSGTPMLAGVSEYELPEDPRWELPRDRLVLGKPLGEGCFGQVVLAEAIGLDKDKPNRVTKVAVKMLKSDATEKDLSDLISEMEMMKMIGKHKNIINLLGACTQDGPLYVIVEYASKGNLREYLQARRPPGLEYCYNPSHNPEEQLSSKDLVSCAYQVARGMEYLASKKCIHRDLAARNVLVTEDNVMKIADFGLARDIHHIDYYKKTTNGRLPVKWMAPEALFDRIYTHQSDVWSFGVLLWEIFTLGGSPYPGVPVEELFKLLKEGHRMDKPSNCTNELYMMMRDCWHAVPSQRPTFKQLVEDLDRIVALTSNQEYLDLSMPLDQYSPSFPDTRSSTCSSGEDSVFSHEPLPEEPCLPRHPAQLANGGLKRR
Chain of Hck (P08631 whole entry, looked up): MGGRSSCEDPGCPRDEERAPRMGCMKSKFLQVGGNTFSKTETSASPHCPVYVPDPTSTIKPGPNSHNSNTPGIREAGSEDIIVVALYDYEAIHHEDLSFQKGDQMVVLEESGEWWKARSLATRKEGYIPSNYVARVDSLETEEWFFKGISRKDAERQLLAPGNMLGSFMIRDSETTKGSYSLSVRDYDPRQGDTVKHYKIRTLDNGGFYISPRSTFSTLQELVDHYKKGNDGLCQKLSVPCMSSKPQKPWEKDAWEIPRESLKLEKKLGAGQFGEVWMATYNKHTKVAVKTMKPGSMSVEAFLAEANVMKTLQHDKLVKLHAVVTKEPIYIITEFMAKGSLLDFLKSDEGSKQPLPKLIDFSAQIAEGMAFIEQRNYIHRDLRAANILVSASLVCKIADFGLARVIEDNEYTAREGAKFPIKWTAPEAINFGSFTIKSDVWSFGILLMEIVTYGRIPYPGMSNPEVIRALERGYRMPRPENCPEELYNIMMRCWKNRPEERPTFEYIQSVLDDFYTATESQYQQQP

| Sequence | phosphorylation enrichment (c-Src) | phosphorylation enrichment (AncSZ) | phosphorylation enrichment (Hck) | phosphorylation enrichment (Jak2) | phosphorylation enrichment (FGFR3) | phosphorylation enrichment (Fer (mouse)) | phosphorylation enrichment (FGFR1) | phosphorylation enrichment (MERTK) | phosphorylation enrichment (EPHB1) | phosphorylation enrichment (EPHB2) | phosphorylation enrichment (Fyn) | phosphorylation enrichment (c-Abl (mouse)) | phosphorylation enrichment (Fes) | SH2 binding enrichment (c-Src SH2) | SH2 binding enrichment (Grb2 SH2) | SH2 binding enrichment (SHP2-C SH2) |
| --- | --- | --- | --- | --- | --- | --- | --- | --- | --- | --- | --- | --- | --- | --- | --- | --- |
| KLKRSYSSPDI [USP8_Y717] | 0.396 | 0.552 | 0.379 | 0.524 | 0.461 | 0.38 | 0.365 | 0.43 | 0.376 | 0.688 | 0.322 | 0.412 | 0.613 | 0.413 | 0.698 | 0.649 |
| KLLRLYAVVTR [LYN_Y306_V303L] | 0.544 | 0.997 | 0.468 | 1.05 | 0.644 | 0.51 | 0.409 | 0.581 | 0.982 | 0.594 | 0.451 | 0.918 | 1.04 | 1.21 | 1.12 | 2.42 |
| KLNNEYLELNF [MME_Y497_YF] | 0.843 | 1.16 | 1.06 | 1.1 | 3.38 | 0.552 | 4.77 | 0.503 | 0.844 | 0.715 | 0.757 | 0.778 | 1.04 | 0.488 | 0.722 | 0.751 |
| KLQKKYGPISS [CYP17A1_Y60_Y64S] | 0.364 | 0.381 | 0.375 | 0.364 | 0.493 | 0.289 | 0.338 | 0.378 | 0.32 | 0.317 | 0.343 | 0.399 | 0.553 | 0.554 | 0.873 | 0.594 |
| KMKGDYFRFLA [YWHAG_Y130_YF] | 2.11 | 0.722 | 0.543 | 4.54 | 3.83 | 0.282 | 5.05 | 0.632 | 0.804 | 0.509 | 1.01 | 0.806 | 0.689 | 1.22 | 1.71 | 1.6 |
| KNITEYCRHLI [RECQL_Y492_D495H] | 0.477 | 0.726 | 0.455 | 0.88 | 0.533 | 0.533 | 0.526 | 0.43 | 0.51 | 0.436 | 0.433 | 0.654 | 0.855 | 0.612 | 0.812 | 0.773 |
| KNKLNYTLPQD [NRAP_Y523] | 0.35 | 0.584 | 0.406 | 0.567 | 0.451 | 0.39 | 0.419 | 0.347 | 0.409 | 0.436 | 0.372 | 0.468 | 0.523 | 0.648 | 0.944 | 0.834 |
| KPAFSYTSSST [SIM1_Y356] | 0.484 | 1.01 | 0.446 | 0.528 | 0.475 | 0.447 | 0.415 | 0.417 | 0.467 | 0.533 | 0.578 | 0.606 | 0.635 | 0.503 | 0.944 | 0.715 |
| KPIETYFSKNF [PLP1_Y50_L46P_YF] | 0.44 | 0.656 | 0.436 | 0.636 | 0.555 | 0.379 | 0.417 | 0.465 | 0.506 | 0.497 | 0.544 | 0.53 | 0.775 | 0.439 | 0.663 | 0.568 |
| KPNMNYDKLSQ [FLI1_Y332_R337Q] | 0.478 | 0.495 | 0.431 | 0.612 | 0.447 | 0.462 | 0.468 | 0.394 | 0.418 | 0.446 | 0.422 | 0.431 | 0.578 | 1.15 | 0.882 | 0.659 |
| KPNMNYDKLSR [FLI1_Y332] | 0.418 | 0.548 | 0.454 | 0.389 | 0.4 | 0.324 | 0.416 | 0.337 | 0.494 | 0.541 | 0.342 | 0.459 | 0.486 | 1.59 | 0.895 | 0.725 |
| KPPPSYESEEE [BRD4_Y599_T598S] | 0.591 | 1.42 | 0.601 | 1.32 | 0.71 | 0.557 | 0.584 | 0.543 | 0.611 | 0.761 | 0.639 | 0.957 | 1.29 | 0.762 | 1.04 | 0.517 |
| KPVDTYYDSTR [DYNC2H1_Y2230_M2227V] | 0.56 | 0.808 | 0.808 | 0.756 | 0.668 | 0.427 | 0.826 | 0.397 | 0.648 | 0.496 | 0.508 | 0.633 | 0.809 | 0.923 | 0.848 | 0.64 |
| KPYRVYCDMNT [FGB_Y269] | 0.562 | 1.04 | 0.691 | 1.1 | 0.789 | 0.68 | 0.51 | 0.492 | 1.53 | 0.783 | 0.6 | 0.779 | 1.13 | 1.04 | 1.03 | 0.658 |
| KQINDYVEKGT [SERPINA1_Y184] | 0.478 | 0.733 | 0.433 | 0.72 | 0.58 | 0.536 | 0.402 | 0.374 | 0.491 | 0.431 | 0.44 | 0.546 | 0.905 | 0.528 | 0.726 | 0.585 |
| KRLFAYKMLMA [TMC2_Y209_Q205R_YF] | 0.367 | 0.767 | 0.455 | 0.669 | 0.683 | 0.59 | 0.458 | 0.375 | 0.484 | 0.528 | 0.433 | 0.58 | 0.867 | 1.51 | 2.05 | 1.98 |
| KSDVVYTDWKK [ORM1_Y175] | 1.65 | 0.856 | 4.84 | 0.648 | 0.609 | 0.592 | 0.558 | 0.559 | 0.44 | 0.513 | 1.55 | 1.4 | 1.02 | 0.505 | 0.757 | 0.885 |
| KSPDSYQKILP [ATM_Y1415_L1420P] | 0.389 | 0.544 | 0.36 | 0.519 | 0.429 | 0.531 | 0.517 | 0.414 | 0.387 | 0.321 | 0.427 | 0.431 | 0.584 | 1.45 | 0.947 | 0.688 |
| KSRQIYDAYIM [GRK3_Y109_R104K] | 8.25 | 0.797 | 8.38 | 0.581 | 0.546 | 12.4 | 0.505 | 6.9 | 2.98 | 7 | 11.1 | 5.89 | 0.735 | 0.683 | 0.955 | 0.834 |
| KTSGNYLPVTG [WDR19_Y28_A30P] | 0.402 | 0.519 | 0.405 | 0.524 | 0.37 | 0.359 | 0.369 | 0.598 | 0.474 | 0.435 | 0.41 | 0.446 | 0.543 | 0.493 | 0.758 | 0.913 |
| KVALLYKPFFF [POLE_Y100_P99L_YF] | 1.67 | 1.15 | 0.82 | 1.12 | 0.704 | 1.39 | 0.496 | 0.772 | 0.516 | 0.606 | 0.827 | 0.921 | 1.17 | 1.49 | 1.78 | 1.62 |
| KVMANYMYKAG [MAML2_Y513] | 0.296 | 0.617 | 0.461 | 0.49 | 0.512 | 0.388 | 0.529 | 0.33 | 0.505 | 0.533 | 0.404 | 0.54 | 0.836 | 0.849 | 1.16 | 1.06 |
| KVMANYVFKAG [MAML2_Y513_M514V_YF] | 0.433 | 0.617 | 0.435 | 0.564 | 0.486 | 0.355 | 0.459 | 0.401 | 0.396 | 0.515 | 0.382 | 0.485 | 0.656 | 0.614 | 1.1 | 0.663 |
| KWRGQYDVAIE [BTK_Y425_K430E] | 0.437 | 0.631 | 0.509 | 0.708 | 0.481 | 0.505 | 0.448 | 0.424 | 0.441 | 0.531 | 0.39 | 0.537 | 0.774 | 3.07 | 1.01 | 0.823 |
| KYVKMCDNHQL [MYO9A_Y203_Y203C] | 0.429 | 0.635 | 0.432 | 0.491 | 0.547 | 0.379 | 0.532 | 0.447 | 0.442 | 0.632 | 0.407 | 0.512 | 0.546 | 0.75 | 1.03 | 0.921 |
| KYWREYILSLE [GPC3_Y299] | 0.856 | 1.03 | 0.461 | 0.974 | 0.752 | 0.366 | 0.499 | 0.39 | 0.541 | 0.569 | 0.427 | 0.677 | 1.05 | 1.37 | 1.48 | 1.71 |
| LAETSYVKVLE [MAGEA1_Y276] | 0.512 | 0.817 | 0.473 | 0.888 | 0.532 | 0.472 | 0.53 | 0.452 | 0.499 | 0.471 | 0.479 | 0.616 | 1.03 | 1.69 | 0.94 | 7 |
| LAIEWYVVVCK [RHO_Y136_R135W] | 0.852 | 2.49 | 1.36 | 1.88 | 2.21 | 0.847 | 1.45 | 0.676 | 1.8 | 1.33 | 0.972 | 2.27 | 3.21 | 0.5 | 1.05 | 0.583 |
| LARDMCDKEFF [MET_Y1230_Y1230C_YF] | 0.715 | 1.79 | 0.653 | 1.34 | 1.06 | 0.738 | 0.492 | 0.697 | 0.61 | 0.816 | 0.513 | 1.42 | 2.12 | 0.475 | 0.778 | 0.676 |

— the supplement of paper PMC10065799, “High-throughput profiling of sequence recognition by tyrosine kinases and SH2 domains using bacterial peptide display” (eLife, 2023)
